Assay results reported in patent publication US5376640A, “Lipolytic enzyme inhibitors” (Nisshin Flour Milling Co., Ltd., priority 1989, dated 1994).
Where two headings read alike, the source gives them in different places. Where a SMILES comes first, the peptide text is derived from it. Where no end group is shown, it is not given here.

Tests used:
[1] = target: Porcine pancreatic lipase (porcine) (UniProt P00591)
[2] = target: Porcine pancreatic lipase (porcine) (UniProt P00591); remark: listed apart in the source
[3] = target: Porcine pancreatic lipase (porcine) (UniProt P00591); remark: listed apart in the source
[4] = target: Porcine pancreatic lipase (porcine) (UniProt P00591); remark: listed apart in the source
[5] = target: T1, porcine pancreatic lipase (Sus scrofa, UniProt P00591); test: Assay of lipase inhibitory activity (olive oil emulsion with sodium cholate, Tris buffer pH 6.8); format: biochemical; details: for Activity of porcine pancreatic lipase: peptide solution 1 mg/ml in distilled water, control = 100
T1 construct: purchased Sigma Co., Ltd
T1 sequence (P00591 1-450): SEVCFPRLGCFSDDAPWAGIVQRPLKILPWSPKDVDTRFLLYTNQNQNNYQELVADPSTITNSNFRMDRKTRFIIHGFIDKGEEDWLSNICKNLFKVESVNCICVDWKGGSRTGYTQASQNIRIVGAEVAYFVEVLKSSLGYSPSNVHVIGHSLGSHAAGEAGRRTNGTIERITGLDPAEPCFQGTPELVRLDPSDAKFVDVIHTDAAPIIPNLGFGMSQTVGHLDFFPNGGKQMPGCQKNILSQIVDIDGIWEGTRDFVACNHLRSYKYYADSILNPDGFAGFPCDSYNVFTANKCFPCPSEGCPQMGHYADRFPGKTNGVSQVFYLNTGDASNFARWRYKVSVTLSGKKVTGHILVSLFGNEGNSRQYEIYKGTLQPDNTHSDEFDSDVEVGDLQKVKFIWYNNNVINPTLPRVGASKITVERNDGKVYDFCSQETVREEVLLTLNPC
Description: 250 mg of an olive oil, 21.5 mg of sodium cholate as a bile acid component and 30 mg of phosphatidylcholine were added to 5 ml of a 200 mM Tris buffer solution at pH 6.8 (called hereafter "Tris buffer").
(§1) The mixture was ultrasonicated to prepare an olive oil emulsion.
Porcine pancreatic lipase (manufactured by Sigma Co., Ltd.) was added to Tris buffer to prepare an enzyme solution containing 100 units porcine pancreatic lipase per ml.
(§2) 100 μl of an olive oil emulsion as prepared above were used as a substrate.
(§3) 50 μl of Tris buffer was added to the substrate to prepare an emulsion for control sample. Each 50 ml of the protein(polypeptide)-containing solutions as prepared above was added to 100 μl of the substrate to prepare six emulsions for test sample. All of the emulsions were incubated for 5 min. To each of those emulsions was added 50 μl of the lipase solution as prepared above. The resulting mixture was incubated at 37° C. for one hour, subsequently to which were added 3 ml of the same extraction solvent as used in Example 1. After being shaken for 5 min., the mixture was centrifuged at 3000 rpm for 5 min. The upper layer was removed with an aspirator and to the remaining solution was added 1 ml of the same copper reagent as used in Example 1. The mixture was shaken for 5 min. and centrifuged at 3000 rpm for 5 min. 0.5 ml of a solution was taken from the upper layer and to the solution was added 0.5 ml of the same color developing agent as used in Example 1.
The resulting solutions for control and test samples were measured for the absorbance at 480 nm (A480) using a photometer to determine the amount of the free fatty acids as formed, i.e., the activity of the porcine pancreatic lipase. […]
Lysine oligomers having a degree of polymerization of 2-5 as shown in Table 6 below were prepared using a peptide synthesizer (Biolynx 4170, LKB-Pharmacia Co., Ltd.). Each of the oligomers was purified by high performance liquid chromatography. Each of the purified oligomers was added to distilled water to make up to 1 μmol/ml. […] lysine oligomer-containing solutions were thus prepared.
50 μl of Tris buffer was added to the substrate to prepare an emulsion for control sample. Each 50 μof the lysine oligomer-containing solutions as prepared above was added to 100 μl of the substrate to prepare six emulsions for test sample. After incubating the emulsions for 5 min., there was added 50 μl of a lipase solution containing 100 units of porcine pancreatic lipase per ml as prepared in the same way as in Example 4. The resulting mixture was incubated at 37 ° C. for one hour.

[6] = target: Cholesterol esterase isolated from porcine pancreas (porcine)
[7] = target: Porcine pancreatic lipase (porcine) (UniProt P00591); remark: listed apart in the source
[8] = target: Porcine pancreatic lipase (porcine) (UniProt P00591); remark: listed apart in the source
[9] = target: T1, porcine pancreatic lipase; test: Assay of lipase inhibitory activity of proteins (olive oil emulsion with sodium cholate, potassium phosphate buffer pH 6.8); format: biochemical; details: for Activity of porcine pancreatic lipase (%): protein solution 4 mg/ml, % of control Abs480, sodium cholate present, 37° C., one hour; for Activity of porcine pancreatic lipase: % of control
Description: 250 mg of an olive oil, 21.5 mg of sodium cholate as a bile acid component and 30 mg of phosphatidylcholine were added to 5 ml of a 300 mM potassium phosphate buffer solution at pH 6.8 (called hereafter "potassium phosphate buffer").
as §1
Porcine pancreatic lipase (manufactured by Sigma Co., Ltd.) was added to the potassium phosphate buffer solution to prepare a lipase solution containing 100 units porcine pancreatic lipase per ml.
as §2
50 μl of potassium phosphate buffer was added to the substrate to prepare an emulsion for control sample. Each 50 μl of the protein(polypeptide)-containing solutions as prepared above was added to 100 μl of the substrate to prepare six emulsions for test samples. All of the emulsions were incubated for 5 min. To each of those emulsions was added 50 μl of the lipase solution as prepared above. The resulting mixture was incubated at 37° C. for one hour, subsequently to which were added 3 ml of an extraction solvent (chloroform:methanol:n-heptane=49:1:49). After being shaken for 5 min., the mixture was centrifuged at 3000 rpm for 5 min. The upper layer was removed with an aspirator and to the remaining solution was added 1 ml of a copper reagent (0.45M triethanol amine, 0.05N acetic acid, 3,4% copper sulfate pentahydrate and 20% sodium chloride). The mixture was shaken for 5 min. and centrifuged at 3000 rpm for 5 min. 0.5 ml of a solution was taken from the upper layer and to the solution was added 0.5 ml of a color developing agent (a solution of 0.1% bathocuproine and 0.05% butyl hydroxyanisole in the above extraction solvent).
The resulting solutions for control and test samples were measured for the absorbance at 480 nm (A480) using a photometer to determine the amount of the free fatty acids as formed, i.e., the activity of the porcine pancreatic lipase.

[10] = target: cholesterol esterase isolated from porcine pancreas (Sus scrofa, UniProt A0A286ZKB1); details: protein solution 4 mg/ml; % of control Abs480; sodium cholate present; 37° C., one hour
cholesterol esterase isolated from porcine pancreas, sequence (A0A286ZKB1 1-682): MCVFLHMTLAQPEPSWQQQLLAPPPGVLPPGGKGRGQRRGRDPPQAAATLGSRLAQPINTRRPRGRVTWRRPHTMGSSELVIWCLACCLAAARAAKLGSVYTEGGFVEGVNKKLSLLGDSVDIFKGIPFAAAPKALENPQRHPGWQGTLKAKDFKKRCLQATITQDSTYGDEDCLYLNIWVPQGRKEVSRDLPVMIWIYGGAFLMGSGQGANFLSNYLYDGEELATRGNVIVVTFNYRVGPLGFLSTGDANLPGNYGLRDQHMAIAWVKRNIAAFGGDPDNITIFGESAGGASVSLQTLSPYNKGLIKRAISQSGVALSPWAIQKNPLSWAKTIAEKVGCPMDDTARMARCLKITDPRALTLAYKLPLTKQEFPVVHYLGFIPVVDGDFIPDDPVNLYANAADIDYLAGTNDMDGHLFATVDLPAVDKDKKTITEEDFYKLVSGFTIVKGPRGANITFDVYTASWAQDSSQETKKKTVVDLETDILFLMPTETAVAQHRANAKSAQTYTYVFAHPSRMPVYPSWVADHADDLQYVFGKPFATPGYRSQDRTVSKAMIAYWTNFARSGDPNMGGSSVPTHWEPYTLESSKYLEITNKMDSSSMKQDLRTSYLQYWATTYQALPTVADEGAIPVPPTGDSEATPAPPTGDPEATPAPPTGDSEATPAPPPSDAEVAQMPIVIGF
Description: as §2
as §3, with “potassium phosphate” for “Tris”, “Each 50 ml of the protein(polypeptide)-containing solutions as prepared above was added to 100 μl of the substrate to prepare six emulsions for test sample.” left out

[11] = lysine oligomer solution 1 μmol/ml, % of control
[12] = solution of 1 mg in 10 ml Tris buffer, % of control Abs480, sodium cholate present

β-purothionin (SEQ ID NO:3) (peptide)
Activity of porcine pancreatic lipase (%) [1]: 0 % of control
Activity of porcine pancreatic lipase, separate experiment at 0.04 mg/ml [2]: 5.2%
Activity of porcine pancreatic lipase (%), Tris buffer [3]: 1.3 % of control
Activity of porcine pancreatic lipase, solution diluted to 0.2 mg/ml [4]: 0%

Histone H2A (H6881, Sigma Co., Ltd.)
Activity of porcine pancreatic lipase (%), Tris buffer [3]: 3.7 % of control

NCCCC[C@H](N)C(=O)NCCCC[C@H](N)C(=O)NCCCC[C@H](N)C(=O)NCCCC[C@H](N)C(=O)NCCCC[C@H](N)C(=O)O [ε-(L-lysine)5]
Activity of porcine pancreatic lipase (%) [5, 11]: 3.1%

β-lactoglobulin (L0130, Sigma Co., Ltd.) (from UniProt P02754)
Activity of porcine pancreatic lipase (%) [1]: 104 % of control
Activity of cholesterol esterase (%) [6]: 89.9 % of control

KKKKK [α-(L-lysine)5]
Activity of porcine pancreatic lipase (%) [5, 11]: 2.1%

NCCCC[C@H](NC(=O)[C@H](CCCCN)NC(=O)[C@H](CCCCN)NC(=O)[C@@H](N)CCCCN)C(=O)O [α-(L-lysine)4] (H-KKKK-OH)
Activity of porcine pancreatic lipase (%) [5, 11]: 103.8%

NCCCC[C@H](N)C(=O)NCCCC[C@H](N)C(=O)NCCCC[C@H](N)C(=O)O [ε-(L-lysine)3]
Activity of porcine pancreatic lipase (%) [5, 11]: 89.0%

ε-(L-lysine)3 (peptide)
Activity of porcine pancreatic lipase (%) [7]: 89 % of control

Bovine serum albumin (A7030, Sigma Co., Ltd., U.S.A.) (from UniProt P02769)
Activity of porcine pancreatic lipase (%) [1]: 105 % of control
Activity of cholesterol esterase (%) [6]: 120 % of control

ε-(L-lysine)5 (SEQ ID NO: 7) (peptide)
Activity of porcine pancreatic lipase (%) [7]: 3.1 % of control

α-poly-D-lysine hydrobromide (P7886, Sigma Co., Ltd.) (peptide)
Activity of porcine pancreatic lipase (Example 6, 1 mg/ml solution) [8]: 1.1 % of control

NCCCC[C@H](NC(=O)[C@@H](N)CCCCN)C(=O)O [α-(L-lysine)2]
Activity of porcine pancreatic lipase (%) [5, 11]: 103.6%

Ovalbumin (A5503, Sigma Co., Ltd.) (from UniProt P01012)
Activity of porcine pancreatic lipase (%) [1]: 107 % of control
Activity of cholesterol esterase (%) [6]: 93.6 % of control

poly-L-arginine
Activity of porcine pancreatic lipase (%) [5, 12]: 16.5%

ε-(L-lysine)4 (SEQ ID NO: 6) (peptide)
Activity of porcine pancreatic lipase (%) [7]: 53.8 % of control

Poly-L-arginine (P3892, Sigma Co., Ltd.) (peptide)
Activity of porcine pancreatic lipase (%), Tris buffer [3]: 16.5 % of control

α-poly-D-lysine hydrobromide
Activity of porcine pancreatic lipase [5]: 1.1

NCCCC[C@H](N)C(=O)NCCCC[C@H](N)C(=O)NCCCC[C@H](N)C(=O)NCCCC[C@H](N)C(=O)O [ε-(L-lysine)4]
Activity of porcine pancreatic lipase (%) [5, 11]: 53.8%

β-Lactoglobulin: β-lactoglobulin (L0130, Sigma Co., Ltd.), non-basic comparison protein [reference compound]
Activity of porcine pancreatic lipase (%) [9]: 103.9%
Activity of cholesterol esterase (%) [10]: 89.9%

Protamine (P4005, Sigma Co., Ltd., U.S.A.)
Activity of porcine pancreatic lipase (%), Tris buffer [3]: 1.3 % of control

α2-purothionin (SEQ ID NO:2) (peptide)
Activity of porcine pancreatic lipase (%) [1]: 0 % of control

α-poly-L-lysine hydrochloride
Activity of porcine pancreatic lipase [5]: 1.6
Activity of porcine pancreatic lipase (%) [5, 12]: 6.9%

Histone H3 (H4380, Sigma Co., Ltd.)
Activity of porcine pancreatic lipase (%), Tris buffer [3]: 2.3 % of control

α-(L-lysine)2 (peptide)
Activity of porcine pancreatic lipase (%) [7]: 104 % of control

α-poly-L-lysine (3075, Peptide Research Co., Ltd.)
Activity of porcine pancreatic lipase (%), Tris buffer [3]: 6.9 % of control
Activity of porcine pancreatic lipase (Example 6, 1 mg/ml solution) [8]: 1.6 % of control

Protamine
Activity of porcine pancreatic lipase (%) [5, 12]: 1.3%

β-Purothionin: purified β-purothionin (SEQ ID NO:3) isolated from the crude wheat purothionin mixture; misprinted α-Purothionin in Table 3 (KSCCKSTLGRNCYNLCRARGAQKLCANVCRCKLTSGLSCPKDFPK)
Activity of porcine pancreatic lipase ([9]; concentration of 0.04 mg/ml, separate experiment): 5.2%
Activity of porcine pancreatic lipase (%) [9]: 0%
Activity of porcine pancreatic lipase ([9]; solution diluted to protein concentration of 0.2 mg/ml): 0%
Activity of porcine pancreatic lipase (%) [5, 12]: 1.3%

KKKK [α-(L-lysine)4 (SEQ ID NO: 4)]
Activity of porcine pancreatic lipase (%) [7]: 104 % of control

KKKKK [α-(L-lysine)5 (SEQ ID NO: 5)]
Activity of porcine pancreatic lipase (%) [7]: 2.1 % of control

B1: Ovalbumin: ovalbumin (A5503, Sigma Co., Ltd.), non-basic comparison protein (protein, UniProt P01012 2-386, looked up)
Ovalbumin: GSIGAASMEFCFDVFKELKVHHANENIFYCPIAIMSALAMVYLGAKDSTRTQINKVVRFDKLPGFGDSIEAQCGTSVNVHSSLRDILNQITKPNDVYSFSLASRLYAEERYPILPEYLQCVKELYRGGLEPINFQTAADQARELINSWVESQTNGIIRNVLQPSSVDSQTAMVLVNAIVFKGLWEKAFKDEDTQAMPFRVTEQESKPVQMMYQIGLFRVASMASEKMKILELPFASGTMSMLVLLPDEVSGLEQLESIINFEKLTEWTSSNVMEERKIKVYLPRMKMEEKYNLTSVLMAMGITDVFSSSANLSGISSAESLKISQAVHAAHAEINEAGREVVGSAEAGVDAASVSEEFRADHPFLFCIKHIATNAVLFFGRCVSP
Activity of porcine pancreatic lipase (%) [9]: 107.0%
Activity of cholesterol esterase (%) [10]: 93.6%
